The data set concerns C[C@@H]1O[C@@H]1P(=O)(O)O. The experiment in a line: HPLC, initial rates, Michaelis-Menten fit. In kind it is biochemical, Morganella morganii. The conditions noted are these: 10 mM GSH, 250 µM MnCl2, 100 mM KCl, 100 mM Tris-HCl, 37 °C, fosfomycin 0-800 µM, printed unit µM conflicts with printed kcat/Km (1.50 × 10^4 M^-1 s^-1), which implies mM.

For orientation: kcat means the number of substrate molecules converted per active site and unit of time at saturation. For “FosA13 (Morganella morganii subsp. morganii KT)”, the kcat turned out to be 6.43 ± 0.04 s⁻¹.

The record behind these values is article PMC11933065, “Characterization of FosA13, a novel fosfomycin glutathione transferase identified in a Morganella morganii isolate from poultry” (Frontiers in Cellular and Infection Microbiology, 2025).
